Patent US20240141364

Key:
Experiment in all cases: cell_activity
[1] = test system: SB03758 degron-A(EAAAK)3A-ZF10-minKRAB (synthetic construct); settings: mCherry increase with 1 uM pomalidomide vs no drug (release of repression); U87-MG
[2] = test system: SB03759 degron-A(EAAAK)3A-ZF10-1-minKRAB (synthetic construct); settings: mCherry increase with 1 uM pomalidomide vs no drug (release of repression); U87-MG; text describes the reporter as SEQ ID NO 56 core promoter with four …
[3] = test system: SB03936 degron-A(EAAAK)3A-HDAC4-ZF10-1 (synthetic construct); settings: mCherry increase with 1 uM pomalidomide vs no drug; represses without drug; U87-MG
Sequence of SB03936 degron-A(EAAAK)3A-HDAC4-ZF10-1 (synthetic construct) (chain, as listed by the source): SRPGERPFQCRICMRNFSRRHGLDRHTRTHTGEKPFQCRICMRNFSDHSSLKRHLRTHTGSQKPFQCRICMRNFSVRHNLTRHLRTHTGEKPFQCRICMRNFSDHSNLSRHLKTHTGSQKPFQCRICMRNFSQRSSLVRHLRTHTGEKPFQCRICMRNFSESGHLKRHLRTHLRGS

[4] = test system: SB03937 ZF10-HDAC4-ecpd-degron (synthetic construct); settings: mCherry increase with 1 uM pomalidomide vs no drug; represses without drug; U87-MG

Measured: activity

Sequence of SB03759 degron-A(EAAAK)3A-ZF10-1-minKRAB (synthetic construct) (chain, as listed by the source): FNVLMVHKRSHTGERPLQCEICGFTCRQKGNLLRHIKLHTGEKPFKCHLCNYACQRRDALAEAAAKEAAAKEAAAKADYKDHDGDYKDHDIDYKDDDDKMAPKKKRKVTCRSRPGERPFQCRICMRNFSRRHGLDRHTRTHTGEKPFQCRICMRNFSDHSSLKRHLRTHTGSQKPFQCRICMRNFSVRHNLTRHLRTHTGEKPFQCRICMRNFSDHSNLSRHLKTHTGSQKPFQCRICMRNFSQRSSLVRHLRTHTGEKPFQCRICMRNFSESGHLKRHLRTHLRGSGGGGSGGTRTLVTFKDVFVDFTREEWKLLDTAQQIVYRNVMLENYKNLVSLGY
Sequence of SB03758 degron-A(EAAAK)3A-ZF10-minKRAB (synthetic construct) (chain, as listed by the source): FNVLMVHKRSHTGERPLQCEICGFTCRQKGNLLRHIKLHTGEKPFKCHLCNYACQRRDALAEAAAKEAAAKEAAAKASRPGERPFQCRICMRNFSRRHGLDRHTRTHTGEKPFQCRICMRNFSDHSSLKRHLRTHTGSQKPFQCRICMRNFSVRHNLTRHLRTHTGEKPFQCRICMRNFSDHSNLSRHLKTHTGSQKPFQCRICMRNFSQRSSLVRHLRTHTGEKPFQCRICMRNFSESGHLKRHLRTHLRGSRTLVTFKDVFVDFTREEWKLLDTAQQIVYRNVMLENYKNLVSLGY

CGGGTTTCGTAACAATCGCATGAGGATTCGCAACGCCTTCGGCGTAGCCGATGTCGCGCTCCCGTCTCAGTAAAGGTCGGCGTAGCCGATGTCGCGCAATCGGACTGCCTTCGTACGGCGTAGCCGATGTCGCGCGTATCAGTCGCCTCGGAACGGCGTAGCCGATGTCGCGCATTCGTAAGAGGCTCACTCTCCCTTACACGGAGTGGATAACTAGTTCTAGAGGGTATATAATGGGGGCCA (double strand) [4xZF10-1 binding sites + core promoter (mCherry reporter)]
> 4 fold: all assays above
